Reference: patent publication US20240207461A1, “RADIOACTIVE ANTITUMOR AGENT” (NIHON MEDI-PHYSICS CO., LTD., priority 2021, published 2024)

Experiments:
[1] = tested on: SW1990 tumor-bearing mice; assay: SPECT-CT imaging of ^111In-labeled antibodies, VOI analysis and absorbed dose calculation; assay type: in vivo, Balb/c nude mice; details: for SPECT absorbed dose liver / SPECT absorbed dose tumor: half-life converted from ^111In to ^225Ac, sphere model; for SPECT absorbed dose liver: mean liver weight 1.15 g; for SPECT absorbed dose tumor: tumor volume assumed 150 mm^3; for maximum tolerated dose (threshold dose/absorbed dose): threshold dose of liver assumed to be 30 Gy
Experimental: To find an anti-MUC5AC antibody with high tumor accumulation ability and high maximum tolerated dose, various antibodies were labeled with ^111In, administered to tumor-bearing mice, and SPECT-CT imaging was performed. Cumulative amount of radioactivity and absorbed dose in tumor and liver were calculated and compared using the obtained images.
(§1) Human pancreatic cancer cell line SW1990 (0.7×10^7 cells) were subcutaneously administered to Balb/c nude mice (male) from the flank to the back thereof.
(§2) When the tumor size reached about 150-300 mm^3 14 days after transplantation of SW1990, various ^111In-labeled antibodies prepared in Reference Example 1-1 were administered from the tail vein of the mice. The tumor volume was calculated from the following calculation formula.
SPECT-CT imaging (small animal SPECT-CT apparatus: FX-3000, manufactured by Trifoil) was performed under the conditions in the following Table. The time points for imaging were 1, 6, 24, 48, 72, and 168 hr after administration. Image reconstruction was performed by the OSEM method for SPECT and the FBP method for CT. A VOI (volume of interest, three-dimensional ROI) analysis of the tumor and liver at each time point was performed. The count number per organ volume was corrected to % ID/g, the physical half-life was converted from ^111In to ^225Ac, the difference in physical half-life was corrected, and the time activity curve with the biological half-life added was obtained. The cumulative radioactivity amount was calculated from the integrated value of this time activity curve, and the absorbed dose was calculated in a sphere model (OLINDA/EXM ver2.0), and this was compared and examined for each antibody. However, for H01L03, a decrease in the time activity curve was not observed 168 hr after administration. Thus, the biological half-life was not considered and only the physical half-life was added.
When the threshold dose of liver was assumed to be 30 Gy, the maximum tolerated dose was estimated to be 3.90 MBq with a humanized antibody (H01L03) and 0.43 MBq with a chimeric antibody. The maximum tolerated dose (MBq) was calculated by threshold dose (Gy)/absorbed dose (Gy/MBq).
(§3) In the Table, the tumor volume was calculated assuming 150 mm^3 in the absorbed dose of SPECT. The absorbed dose of the liver was calculated based on the mean (1.15±0.14 g, n=19) of the weight of the mouse liver used in this Reference Example. The numerical value of the biodistribution was expressed by the mean±standard deviation of n=4 (however, n=3 for H02L04).

[2] = tested on: SW1990 tumor-bearing mice; assay: Biodistribution and excretion route 168 hr after administration of ^111In-labeled antibodies; assay type: in vivo, Balb/c nude mice; details: for biodistribution at 168 hr after administration, blood / biodistribution at 168 hr after administration, kidney / biodistribution at 168 hr after administration, liver / biodistribution at 168 hr after administration, spleen / biodistribution at 168 hr after administration, tumor: ^111In-labeled antibody, tail vein, mean ± SD n=4 (n=3 for H02L04)
Experimental: as §1, §2
A graph showing the results of confirming the biodistribution and the excretion route after the completion of SPECT-CT imaging 168 hr after administration are shown in FIG. 11.
as §3

[3] = ^111In-labeled antibodies, SPECT-CT up to 168 hr

Row | Molecule | accumulation in the liver (comparison among antibodies) [1, 3] | accumulation in the tumor (comparison among antibodies) [1, 3] | SPECT absorbed dose liver [1] [Gy/MBq] | SPECT absorbed dose tumor [1] [Gy/MBq] | maximum tolerated dose (threshold dose/absorbed dose) [1] [MBq] | biodistribution at 168 hr after administration, blood [2] [% ID/g] | biodistribution at 168 hr after administration, kidney [2] [% ID/g] | biodistribution at 168 hr after administration, liver [2] [% ID/g] | biodistribution at 168 hr after administration, spleen [2] [% ID/g] | biodistribution at 168 hr after administration, tumor [2] [% ID/g] | decrease in the time activity curve ([1]; 168 hr after administration) | blood retention ([2]; 168 hr after administration) | excretion ([2]; 168 hr after administration)
1 | chimeric antibody: anti-MUC5AC chimeric antibody disclosed in Patent Literature 1 (SEQ ID NOs: 23 and 24), tested ^111In-labeled (conjugate, 111In label; Kimeric antibody heavy chain variable region 7 (H07); Kimeric antibody light chain variable region 8 (L08)) VH: EVKLVESGGVLVKSGGSLKLSCAVSGFTFSNYGMSWVRQTPEKRLEWVATISNSGRYTYFPDSVKGPFAISRDNAKNNLYLQMSSLRSADTALYYCTRHLDYANYDAMDYWGQGTSVTVSS VL: DIVLTQSPASLAVSLGQRATISCRASKSVTTSDFSYMHWYQQKPGQPPKLLLYLASNLESGVPDRFSGSGSGYDFYLNIHPVEEEDAATYYCQHSREFPWTFGGGTKLEIK | highest | lowest | 70.1 | 9.5 | 0.43 | 2.2 ± 0.6 | 1.8 ± 0.3 | 7.9 ± 1.9 | 5.0 ± 1.8 | 11.6 ± 0.9 | – | – | –
2 | H01L03: anti-MUC5AC humanized antibody, heavy chain variable region H01 (SEQ ID NO: 1), light chain L03 (SEQ ID NO: 7), tested ^111In-labeled via DOTA-PEG-peptide (conjugate, 111In-DOTA-PEG-peptide label; Humanaized antibody heavy chain variable region 1 (H01); Humanaized antibody light chain variable region 3 (L03)) VH: EVQLLESGGGLVQPGGSLRLSCAASGFTFSNYGMSWVRQAPGKGLEWVSTISNSGRYTYFPDSVKGRFTISRDNSKNTLYLQMNSLRAEDTALYYCTRHLDYANYDAMDYWGQGTLVTVSS VL: DIQMTQSPSSLSASVGDRVTITCRASKSVTTSDFSYMHWYQQKPGKSPKLLIYLASNLESGVPSRFSGSGSGTDFSLTISSLQPEDFATYYCQHSREFPWTFGGGTKVEIK | – | highest | 7.7 | 35.0 | 3.90 | 5.3 ± 1.3 | 2.5 ± 0.4 | 3.6 ± 1.7 | 5.4 ± 0.8 | 24.2 ± 3.9 | not observed | high | slowest
3 | H01L04: anti-MUC5AC humanized antibody, H01 (SEQ ID NO: 1) and L04 (SEQ ID NO: 8), tested ^111In-labeled (conjugate, 111In label; Humanaized antibody heavy chain variable region 1 (H01); Humanaized antibody light chain variable region 4 (L04)) VH: EVQLLESGGGLVQPGGSLRLSCAASGFTFSNYGMSWVRQAPGKGLEWVSTISNSGRYTYFPDSVKGRFTISRDNSKNTLYLQMNSLRAEDTALYYCTRHLDYANYDAMDYWGQGTLVTVSS VL: DIVMTQSPDSLAVSLGERATINCKASKSVTTSDFSYLHWYQQKPGQPPKLLIYLASNLESGVPDRFSGSGSGTDFTLTISSLQAEDVAVYYCQHSREFPWTFGGGTKLEIK | – | – | 33.4 | 15.3 | – | 2.1 ± 0.8 | 1.1 ± 0.3 | 3.1 ± 0.9 | 3.8 ± 1.2 | 12.9 ± 2.6 | – | – | –
4 | H04L04: anti-MUC5AC humanized antibody, H04 (SEQ ID NO: 4) and L04 (SEQ ID NO: 8), tested ^111In-labeled (conjugate, 111In label; Humanaized antibody heavy chain variable region 4 (H04); Humanaized antibody light chain variable region 4 (L04)) VH: EVQLLESGGGLVQPGGSLRLSCAVSGFTFSNYGMSWVRQAPGKGLEWVSTISNSGRYTYFPDSVKGRFTISRDNSRNTLYLQMNTLRAEDTAVYYCTRHLDYANYDAMDYWGQGTPVTVSS VL: DIVMTQSPDSLAVSLGERATINCKASKSVTTSDFSYLHWYQQKPGQPPKLLIYLASNLESGVPDRFSGSGSGTDFTLTISSLQAEDVAVYYCQHSREFPWTFGGGTKLEIK | – | – | 35.4 | 15.0 | – | 3.8 ± 0.7 | 1.6 ± 0.2 | 3.9 ± 1.4 | 3.4 ± 0.3 | 17.2 ± 4.2 | – | – | –
5 | H02L04: anti-MUC5AC humanized antibody, H02 (SEQ ID NO: 2) and L04 (SEQ ID NO: 8), tested ^111In-labeled (conjugate, 111In label; Humanaized antibody heavy chain variable region 2 (H02); Humanaized antibody light chain variable region 4 (L04)) VH: LVQLVESGGGVVRPGGSLRLSCAASGFTFSNYGMSWIRQAPGKGLEWVSTISNSGRYTYFPDSVKGRFTISRDNAKNSLYLQMNSLRAEDTALYYCTRHLDYANYDAMDYWGQGTLVTVSS VL: DIVMTQSPDSLAVSLGERATINCKASKSVTTSDFSYLHWYQQKPGQPPKLLIYLASNLESGVPDRFSGSGSGTDFTLTISSLQAEDVAVYYCQHSREFPWTFGGGTKLEIK | – | – | 27.0 | 13.7 | – | 2.6 ± 2.3 | 1.4 ± 1.0 | 2.7 ± 0.7 | 4.0 ± 3.0 | 15.6 ± 6.2 | – | – | –
